Reference: paper PMC7096706

Molecular target: Trypanosoma cruzi farnesyl pyrophosphate synthase (Trypanosoma cruzi)
Assay: dynamic light scattering; stock solution of tcFPPS thawed from -80°C directly before analysis; Zetasizer Ultra; distribution by volume analysis; monomer to dimer

stoichiometry N: 2
Substance: Trypanosoma cruzi farnesyl pyrophosphate synthase (enzyme)
